Source: US20110223615A1

Legend:
Experiment in all cases: cell-based or functional assay
[1] = biological target: ADA (envelope of the HIV-1 pseudovirus) (HIV-1)
[2] = biological target: BaL.01 (envelope of the HIV-1 pseudovirus) (HIV-1)
[3] = biological target: HIV2 (envelope of the indicator virus, without sCD4) (HIV-2)
[4] = biological target: JRFL (envelope of the HIV-1 pseudovirus) (HIV-1)
[5] = biological target: MuLV (envelope of the control pseudovirus) (MuLV)
[6] = biological target: SF162 (envelope of the HIV-1 pseudovirus) (HIV-1)
[7] = biological target: SVPB12 (envelope of the HIV-1 pseudovirus) (HIV-1)
[8] = biological target: SVPB14 (envelope of the HIV-1 pseudovirus) (HIV-1)
[9] = biological target: SVPB16 (envelope of the HIV-1 pseudovirus) (HIV-1)
[10] = biological target: SVPB17 (envelope of the HIV-1 pseudovirus) (HIV-1)
[11] = biological target: SVPB5 (envelope of the HIV-1 pseudovirus) (HIV-1)

Substance | IC50 (ug/ml) neutralization [1] | IC50 (ug/ml) neutralization [2] | IC50 (ug/ml) neutralization [3] | IC50 (ug/ml) neutralization [4] | IC50 (ug/ml) neutralization [5] | IC50 (ug/ml) neutralization [6] | IC50 (ug/ml) neutralization [7] | IC50 (ug/ml) neutralization [8] | IC50 (ug/ml) neutralization [9] | IC50 (ug/ml) neutralization [10] | IC50 (ug/ml) neutralization [11]
CD4bs mAb b12 (antibody) | 1.2 µg/mL | 0.2 µg/mL | > 30 µg/mL | < 0.1 µg/mL | > 30 µg/mL | < 0.1 µg/mL | > 30 µg/mL | 0.3 µg/mL | 12 µg/mL | > 30 µg/mL | 18 µg/mL
E51 (antibody) | > 30 µg/mL | > 30 µg/mL | > 30 µg/mL | > 30 µg/mL | > 30 µg/mL | 45 µg/mL | > 30 µg/mL | > 30 µg/mL | > 30 µg/mL | > 30 µg/mL | > 30 µg/mL
HIV-1 CD4i mAb 17b (antibody) | > 30 µg/mL | > 30 µg/mL | 10 µg/mL | > 30 µg/mL | > 30 µg/mL | 30 µg/mL | > 30 µg/mL | > 30 µg/mL | > 30 µg/mL | > 30 µg/mL | > 30 µg/mL
HIV-1 CD4i mAb 19e (antibody) | > 30 µg/mL | > 30 µg/mL | > 30 µg/mL | > 30 µg/mL | > 30 µg/mL | > 30 µg/mL | > 30 µg/mL | > 30 µg/mL | > 30 µg/mL | > 30 µg/mL | > 30 µg/mL
broadly neutralizing mAb 2G12 (antibody) | 12 µg/mL | 1 µg/mL | > 25 µg/mL | 0.3 µg/mL | > 25 µg/mL | 0.5 µg/mL | 0.3 µg/mL | > 25 µg/mL | > 25 µg/mL | > 25 µg/mL | 8 µg/mL
